In article PMC12151457:

Target: Asp229 (UniProt position 204, GLPADDRVGDK)
Experiment: kinetics
Settings: 25 °C, 100 mM NaCl, 10 mM HEPES
[1] = free enzyme (the authors interpret the pH dependence of kcat/KM as ionisation of the catalytic Asp in the substrate-free enzyme)

| Substance | pKa [1] | pKa (free enzyme (the authors state that kcat/KM reports ionisation in the substrate-free enzyme)) |
| --- | --- | --- |
| V4 Kemp eliminase (GNCA4-12 ancestral beta-lactamase scaffold with extra C-terminal polypeptide segment) (synthetic construct (reconstructed ancestral class A beta-lactamase, GNCA node, last common ancestor of various Gram-negative bacteria); W229D;F290W;I250V;R256H;L260F;V261L;H291V;insertion of extra C-terminal polypeptide segment (sequence not stated)) | about 7 |  |
| V4 Kemp eliminase (GNCA4-12 ancestral beta-lactamase-based de novo Kemp eliminase with an extra C-terminal polypeptide segment) (synthetic construct (reconstructed ancestral GNCA node beta-lactamase, last common ancestor of various Gram-negative bacteria); W229D;F290W;I250V;R256H;L260F;V261L;H291V;C-terminal polypeptide segment insertion) |  | 6.7 |
| V4-4 Kemp eliminase (V4 + L49I/G58Q/R230I/A257P/A262C) (synthetic construct (reconstructed ancestral class A beta-lactamase, GNCA node, last common ancestor of various Gram-negative bacteria); W229D;F290W;I250V;R256H;L260F;V261L;H291V;L49I;G58Q;R230I;A257P;A262C;insertion of extra C-terminal polypeptide segment (sequence not stated)) | about 7 |  |
